Data taken from US20260041744.

Molecular target: cellular receptors (CIMPR) on normal and Pompe patient fibroblasts (UniProt P11717)
Sequence (P11717 41-2491): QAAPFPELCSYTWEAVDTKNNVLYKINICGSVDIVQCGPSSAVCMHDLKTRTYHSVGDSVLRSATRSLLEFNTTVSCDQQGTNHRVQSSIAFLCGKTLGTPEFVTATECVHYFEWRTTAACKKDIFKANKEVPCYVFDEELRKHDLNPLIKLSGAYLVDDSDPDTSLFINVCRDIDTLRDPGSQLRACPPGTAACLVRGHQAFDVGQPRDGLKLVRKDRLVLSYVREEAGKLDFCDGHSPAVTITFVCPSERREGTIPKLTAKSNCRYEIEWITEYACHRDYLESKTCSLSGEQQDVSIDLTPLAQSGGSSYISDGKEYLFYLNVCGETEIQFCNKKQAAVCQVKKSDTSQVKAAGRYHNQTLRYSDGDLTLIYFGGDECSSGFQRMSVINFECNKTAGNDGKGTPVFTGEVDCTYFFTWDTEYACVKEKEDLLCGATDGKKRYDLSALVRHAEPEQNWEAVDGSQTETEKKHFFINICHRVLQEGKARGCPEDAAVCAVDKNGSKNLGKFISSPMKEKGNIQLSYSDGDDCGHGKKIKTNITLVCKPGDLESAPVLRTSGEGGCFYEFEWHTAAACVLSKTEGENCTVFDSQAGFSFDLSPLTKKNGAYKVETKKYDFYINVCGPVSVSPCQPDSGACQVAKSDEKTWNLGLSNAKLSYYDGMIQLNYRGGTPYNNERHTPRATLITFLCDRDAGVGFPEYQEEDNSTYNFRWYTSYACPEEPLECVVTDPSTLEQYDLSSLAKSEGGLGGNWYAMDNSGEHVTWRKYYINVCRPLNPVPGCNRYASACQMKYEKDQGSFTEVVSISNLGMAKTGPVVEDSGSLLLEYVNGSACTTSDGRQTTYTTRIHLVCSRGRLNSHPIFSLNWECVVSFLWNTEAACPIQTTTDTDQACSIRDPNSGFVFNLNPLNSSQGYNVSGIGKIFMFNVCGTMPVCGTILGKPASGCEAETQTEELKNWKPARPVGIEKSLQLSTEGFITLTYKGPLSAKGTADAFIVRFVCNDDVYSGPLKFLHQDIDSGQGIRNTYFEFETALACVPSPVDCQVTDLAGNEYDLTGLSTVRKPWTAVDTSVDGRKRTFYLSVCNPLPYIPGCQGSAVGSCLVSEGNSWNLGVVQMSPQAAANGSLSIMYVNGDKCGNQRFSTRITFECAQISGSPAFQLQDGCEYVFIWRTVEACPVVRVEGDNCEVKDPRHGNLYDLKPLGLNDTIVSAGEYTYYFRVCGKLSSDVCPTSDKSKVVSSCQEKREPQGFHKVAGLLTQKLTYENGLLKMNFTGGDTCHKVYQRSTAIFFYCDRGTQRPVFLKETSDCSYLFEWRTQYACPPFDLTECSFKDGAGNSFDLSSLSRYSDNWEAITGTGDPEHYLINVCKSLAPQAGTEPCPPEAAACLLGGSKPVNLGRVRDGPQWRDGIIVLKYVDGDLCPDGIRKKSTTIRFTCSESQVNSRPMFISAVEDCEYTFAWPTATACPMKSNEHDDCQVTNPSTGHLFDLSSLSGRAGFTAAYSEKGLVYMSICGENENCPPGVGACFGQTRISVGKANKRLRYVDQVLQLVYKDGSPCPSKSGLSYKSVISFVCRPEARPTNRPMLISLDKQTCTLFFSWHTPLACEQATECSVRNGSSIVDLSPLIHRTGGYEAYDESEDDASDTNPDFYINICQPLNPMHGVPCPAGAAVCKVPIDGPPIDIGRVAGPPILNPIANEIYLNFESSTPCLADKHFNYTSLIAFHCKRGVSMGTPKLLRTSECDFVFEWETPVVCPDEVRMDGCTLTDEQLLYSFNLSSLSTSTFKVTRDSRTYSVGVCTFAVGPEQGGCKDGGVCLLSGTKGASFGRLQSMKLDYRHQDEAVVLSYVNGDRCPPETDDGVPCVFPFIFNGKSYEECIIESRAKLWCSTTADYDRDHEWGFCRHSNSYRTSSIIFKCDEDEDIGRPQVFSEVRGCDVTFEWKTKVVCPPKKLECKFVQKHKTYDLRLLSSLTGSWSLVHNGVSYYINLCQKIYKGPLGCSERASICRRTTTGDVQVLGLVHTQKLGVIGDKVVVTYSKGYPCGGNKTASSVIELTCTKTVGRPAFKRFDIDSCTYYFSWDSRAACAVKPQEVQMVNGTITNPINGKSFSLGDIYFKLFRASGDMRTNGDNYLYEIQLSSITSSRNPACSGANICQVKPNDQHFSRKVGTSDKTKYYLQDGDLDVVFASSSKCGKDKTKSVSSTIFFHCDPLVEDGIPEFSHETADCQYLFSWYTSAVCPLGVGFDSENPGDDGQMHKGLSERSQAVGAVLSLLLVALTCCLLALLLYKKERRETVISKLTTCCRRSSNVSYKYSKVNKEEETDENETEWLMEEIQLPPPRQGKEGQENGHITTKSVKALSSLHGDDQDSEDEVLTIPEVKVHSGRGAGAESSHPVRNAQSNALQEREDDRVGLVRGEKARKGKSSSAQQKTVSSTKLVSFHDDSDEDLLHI

Substance	stated: taken up; internalized GAA activity in CRL 2076 (normal fibroblasts)	stated: taken up; internalized GAA activity in PM25 (Pompe fibroblasts)	stated: internalized; internalized GAA activity (nmol/mg protein/hr) in skeletal muscle myoblasts against rhGAA added (nM)	stated: internalized; internalized GAA activity (pmol 4-MU/mg/h), 4MU-α-Glc assay, Pompe patient fibroblasts, 20 nM rhGAA	stated: not internalized; internalized GAA activity (pmol 4-MU/mg/h), 4MU-α-Glc assay, Pompe patient fibroblasts, 20 nM rhGAA
LUMIZYME® (alglucosidase alfa, conventional rhGAA product)	curve marked Alglucosidase Alfa rises slowly: about 8 at about 10 nM, about 16 at about 27 nM, about 23 at about 80 nM, about 35 nmol/mg protein/hr at about 240 nM, no clear plateau; with +M6P at about 240 nM (square) about 1	curve marked Alglucosidase Alfa rises slowly: about 7 at about 10 nM, about 13 at about 27 nM, about 27 at about 80 nM, about 37 nmol/mg protein/hr at about 240 nM, still rising; with +M6P at about 245 nM (square) about 3			
ATB200 rhGAA (recombinant human acid α-glucosidase produced from CHO cell line GA-ATB200)	curve marked ATB200 rises steeply from about 0 to about 26 at about 10 nM and about 33 nmol/mg protein/hr at about 27 nM, then plateau of about 34-35 up to about 240 nM; with +M6P at about 240 nM (triangle) only about 5	curve marked ATB200 rises steeply from about 0 to about 30 at about 10 nM and about 36 at about 27 nM, then plateau of about 40 nmol/mg protein/hr at about 80 nM (point of about 45 at about 240 nM); with +M6P at about 245 nM (triangle) about 1	ATB200 curve rises steeply from 0, to about 400 near 15 nM and about 540 near 30 nM, then flattens: about 630 near 60 nM, about 700 at 125 nM, about 740 at 250 nM	bar 'Cipaglucosidase alfa + Mock' is the highest, a little above the 900 tick; untreated cells are at 0	
PAP-treated cipaglucosidase alfa (dephosphorylated cipaglucosidase alfa)					bar 'Cipaglucosidase alfa + PAP' is at about 0, at the level of 'Untreated Cells' and 'PAP Alone'
alglucosidase alfa (mock-treated control of Example 16)			Alglucosidase alfa curve rises slowly: about 150 near 30 nM, about 250 near 60 nM, about 390 at 125 nM, about 475 at 250 nM. It is still rising with no plateau and lies below ATB200 at every concentration	bar 'Alglucosidase alfa + Mock' lies a little below the 300 tick, clearly above untreated cells and well below the cipaglucosidase alfa + Mock bar	
